Measurements taken from article PMC3280215.

B1: PGT 128 (format not stated for the experiment) (antibody, V domains shown)
VH: QPQLQESGPTLVEASETLSLTCAVSGDSTAACNSFWGWVRQPPGKGLEWVGSLSHCASYWNRGWTYHNPSLKSRLTLALDTPKNLVFLKLNSVTAADTATYYCARFGGEVLRYTDWPKPAWVDLWGRGTLVTVSS
VL: QSALTQPPSASGSPGQSITISCTGTSNNFVSWYQQHAGKAPKLVIYDVNKRPSGVPDRFSGSKSGNTASLTVSGLQTDDEAVYYCGSLVGNWDVIFGGGTKLTVL
B2: Fab PGT 128 (Fab, V domains shown)
VH: B1 VH
VL: B1 VL

Experiments:
[1] = biological target: engineered outer domain mini-V3 (glycosylated gp120 outer domain construct containing a truncated V3 loop) (HIV-1)
[2] = biological target: soluble, partially deglycosylated 664G Env trimer (HIV-1); experiment: negative-stain EM reconstruction

Binder | Kd [1] | fold less than the interaction with m8 [1] | stoichiometry N [2]
B1 | 46 nM | 8 fold | 
B2 |  |  | 3
